Patent US11306331B2, “Processes for the production of hydroxycinnamic acids using polypeptides having tyrosine ammonia lyase activity” (CysBio ApS, priority 2014, dated 2022)

B1: RmXALLI: RmXAL expressed from a synthetic gene codon optimized for Lactococcus lactis (SEQ ID NO: 57) (protein)
chain: MAPSVDSIATSVANSLSNGLHAAAAANGGDVHKKTAGAGSLLPTTETTQLDIVERILADAGATDQIKLDGYTLTLGDVVGAARRGRSVKVADSPHIREKIDASVEFLRTQLDNSVYGVTTGFGGSADTRTEDAISLQKALLEHQLCGVLPTSMDGFALGRGLENSLPLEVVRGAMTIRVNSLTRGHSAVRIVVLEALTNFLNHGITPIVPLRGTISASGDLSPLSYIAASITGHPDSKVHVDGKIMSAQEAIALKGLQPVVLGPKEGLGLVNGTAVSASMATLALTDAHVLSLLAQALTALTVEAMVGHAGSFHPFLHDVTRPHPTQIEVARNIRTLLEGSKYAVHHETEVKVKDDEGILRQDRYPLRCSPQWLGPLVSDMIHAHAVLSLEAGQSTTDNPLIDLENKMTHHGGAFMASSVGNTMEKTRLAVALMGKVSFTQLTEMLNAGMNRALPSCLAAEDPSLSYHCKGLDIAAAAYTSELGHLANPVSTHVQPAEMGNQAINSLALISARRTAEANDVLSLLLATHLYCVLQAVDLRAMEFEHTKAFEPMVTELLKQHFGALATAEVEDKVRKSIYKRLQQNNSYDLEQRWHDTFSVATGAVVEALAGQEVSLASLNAWKVACAEKAIALTRSVRDSFWAAPSSSSPALKYLSPRTRVLYSFVREEVGVKARRGDVYLGKQEVTIGTNVSRIYEAIKSGCIAPVLVKMMA
modifications: RmXal coding sequence (codon optimized for Lactococcus lactis)
B2: HaXAL2: tyrosine ammonia lyase derived from Herpetosiphon aurantiacus, protein GI 159898927, 552 aa (protein, listed as Herpetosiphon aurantiacus)
chain: MRHQVTLTGAGLTIEDVVRVARHHQPVGLTDNPEILQRIEDSCAYINDAVKASKPVYGVTTGFGGMADVVISSEEAADLQNNAIWYHKTGAGKLLPLADVRAAMLLRANSHMRGVSGIRLEIIQRMMTFLNANVTPHVREFGSIGASGDLVPLISITGALLGTDPAFRVDFDGENIDCLEALERLNLPRLELLPKEGLAMMNGTSVMTGIASNVLHDARILLGLALNIHGLMIQGLQGTNQSFHPFIHQHKAHTGQVWAADHMLQILEGSALSRDELDGRHEYREGDLIQDRYSLRCLPQFLGPIIDGMAYITHHLRVEINSANDNPLINTEAGASYHGGNFLGQYIGVGMDQLRYYMGLMAKHLDVQIALLVSPQFNNGLSASLVGNTDRKVNMGLKGLQISGNSIMPILGFLGNSLADRFPTHAEQFNQNINSQGFGSANLARQTIETLQQYIAIALIFGVQAVDLRTFKRTGHYNAVETLSPMTAKLYSAMREVVGKPISHERPYIWNDNEQALEQHISAIVSDITNDGIIPQAIQETLDSLRSIILFA
B3: RtXAL: previously described aromatic amino acid lyase of Rhodosporidium toruloides/Rhodotorula glutinis, protein GI 129593 (protein, UniProt P11544 1-716, looked up)
Phenylalanine/tyrosine …: MAPSLDSISHSFANGVASAKQAVNGASTNLAVAGSHLPTTQVTQVDIVEKMLAAPTDSTLELDGYSLNLGDVVSAARKGRPVRVKDSDEIRSKIDKSVEFLRSQLSMSVYGVTTGFGGSADTRTEDAISLQKALLEHQLCGVLPSSFDSFRLGRGLENSLPLEVVRGAMTIRVNSLTRGHSAVRLVVLEALTNFLNHGITPIVPLRGTISASGDLSPLSYIAAAISGHPDSKVHVVHEGKEKILYAREAMALFNLEPVVLGPKEGLGLVNGTAVSASMATLALHDAHMLSLLSQSLTAMTVEAMVGHAGSFHPFLHDVTRPHPTQIEVAGNIRKLLEGSRFAVHHEEEVKVKDDEGILRQDRYPLRTSPQWLGPLVSDLIHAHAVLTIEAGQSTTDNPLIDVENKTSHHGGNFQAAAVANTMEKTRLGLAQIGKLNFTQLTEMLNAGMNRGLPSCLAAEDPSLSYHCKGLDIAAAAYTSELGHLANPVTTHVQPAEMANQAVNSLALISARRTTESNDVLSLLLATHLYCVLQAIDLRAIEFEFKKQFGPAIVSLIDQHFGSAMTGSNLRDELVEKVNKTLAKRLEQTNSYDLVPRWHDAFSFAAGTVVEVLSSTSLSLAAVNAWKVAAAESAISLTRQVRETFWSAASTSSPALSYLSPRTQILYAFVREELGVKARRGDVFLGKQEVTIGSNVSKIYEAIKSGRINNVLLKMLA

Legend:
[1] = test system: L. lactis NZ9000ΔldhΔldhB; experiment: Specific pHCA and CA productivity of L. lactis strains expressing TAL/PAL enzymes in CDM; assay type: cell-based, Lactococcus lactis; settings: CDM
Source text: The synthetic RsXALI (protein GI 129592) and RmXALI (protein GI 126464011) genes, codon optimized for Lactococcus lactis (GeneArt), were cloned into the nisin inducible expression vector pNZ8048 (Kuipers et al., 1998) as follows: RsXALI (SEQ ID NO: 56) and RmXALI (SEQ ID NO: 57) genes and the vector were PCR amplified using the primers listed in Table 7, and were assembled in a single-tube isothermal reaction using the Gibson Assembly Master Mix (New England Biolabs). Reaction products were ethanol-precipitated and suspended in double distilled water before transformation into L. lactis by electroporation as described by Holo and Nes (1995). The synthetic genes encoding SeSam8, R_XAL, HaXAL1 and FjXAL described in a previous example above were amplified by PCR using the primer pairs listed in Table 1, digested with specific restriction enzymes, and cloned in-between the NcoI and XbaI restriction sites of pNZ8048. The plasmids were obtained and maintained in L. lactis NZ9000 (Kuipers et al., 1998) and the gene sequences of the different constructs were verified by sequencing.
To assess pHCA production, TAL-expression vectors were transformed into a strain derived from NZ9000, but with deletion of the genes Idh and dhB (NZ9000ΔldhΔldhB). A control strain was also constructed by transformation of NZ9000ΔldhΔldhB with empty expression vector pNZ8048.
For molecular biology procedures, L. lactis strains were cultivated as batch cultures (flasks) without aeration in M17 medium (Difco™, USA) supplemented with 0.5% glucose (w/v) at 30° C. To assess pHCA production, strains were grown as static cultures in chemically defined medium (CDM; Poolman and Konings, 1988) containing 1% glucose (wt/vol) without pH control (initial pH 6.5 or 7.0) and supplemented with 1.7 or 3.7 mM L-tyrosine. Plasmid selection was achieved by addition of 5 μg mL^−1 chloramphenicol to the growth medium. Growth was monitored by measuring OD600. For heterologous expression of cloned tyrosine ammonia lyases, L. lactis strains were grown in CDM and nisin (1.5 μg L^−1) was added at an OD600 of 0.3-0.4. Samples (1 mL) of cultures were collected at different points during growth; centrifuged (16,100×g, 10 min, 4° C.) and the supernatants stored at −20° C. until analysis by HPLC as described in a previous example above. […] The first six columns are results from media containing 1.7 mM tyrosine. The seventh and ninth columns represent samples from strains grown in media containing 3.7 mM tyrosine, and the eighth and ninth columns are data from media with 68.5 mM 3-(N-morpholino)propanesulfonic acid (MOPS) and initial pH adjusted to 7.0 rather than 6.5.

[2] = test system: E. coli BL21(DE3)pLysS cells; experiment: Specific production of pHCA and CA by E. coli expressing TAL/PAL enzymes; assay type: cell-based, Escherichia coli; settings: 24 h after supplementation, +/- standard deviation
Description: Plasmids carrying the genes were transformed into electrocompetent E. coli BL21(DE3)pLysS cells (Life Technologies) and selected on LBplates containing 50 ug/mL streptomycin. The strains were grown in M9 minimal media containing glucose as a carbon source, and expression was induced by adding 1 mM IPTG at an optical density at 600 nm of 0.6. After three hours of growth at 30° C. the cultures were supplemented with 2 mM tyrosine, phenylalanine or histidine. After further 24 hours, samples were withdrawn for determination of the optical density at 600 nm and for the isolation of the supernatant.
The concentration of pHCA and CA in the supernatant was quantified by high performance (HPLC) and compared to chemical standards. HPLC was done on a Thermo setup using a HS-F5 column and mobile phases: 5 mM ammonium formate pH 4.0 (A) and acetonitrile (B) at 1.5 mL min-1, using a gradient elution starting at 5% B. From 0.5 min after injection to 7 min, the fraction of B increased linearly from 5% to 60%, and between 9.5 min and 9.6 the fraction of B decreased back to 5%, and remaining there until 12m pHCA and CA were quantified by measuring absorbance at 333 nm and 277 nm, respectively. The production was tested without addition of precursors or the addition of either phenylalanine or tyrosine to the growth medium.
The specific production was calculated as micromolar (μM) concentration per unit of optical density of the culture at 600 nm, and standard deviations were calculated based on triplicate experiments. HaXAL1, HaXAL2 and FjXAL are the most specific enzymes and those that reach the highest yields.

[3] = test system: Saccharomyces cerevisiae CEN.PK102-5B; experiment: Specific production of pHCA and CA by S. cerevisiae expressing TAL enzymes; assay type: cell-based; settings: 72 h, 30° C., +/- standard deviation
Source text: A number of the previously characterized enzymes were characterized when expressed in Saccharomyces cerevisiae. Genes encoding HaXAL1 and FjXAL were synthesized with codon optimization for S. cerevisiae available by GeneArt (Life Technologies), and were named HaXAL1 Sc and FjXALSc. Genes were amplified using the oligonucleotide (refer to specific name) shown in Table 6, and inserted by uracil-excision into the vector pCfB132 together with the PPGK1 promoter amplified by primers PPGK1_fw and PPGK1_rv (Jensen et al., 2014). The finished plasmids were transformed into Saccharomyces cerevisiae CEN.PK102-5B (MAT a ura3-52 his3Δ1 leu2-3/112 MAL2-8c SUC2) using a standard lithium acetate transformation protocol and selected for on synthetic drop-out media plates lacking uracil.
Cells were grown in SC medium without uracil, and diluted into Delft medium or Feed-In-Time (FIT) medium (m2p-labs) supplemented with leucine and histidine. After 72 h of incubation at 30° C. with shaking, samples were taken for the analysis of optical density at 600 nm and for clarification of the supernatant, which was analyzed by HPLC as described in example 1. The specific production was calculated as micromolar (μM) concentration per unit of optical density of the culture at 600 nm and is shown in Table 4.

Molecule	production of CA [1]	Specific production of CA ([2]; M9 + Phe (2 mM)) [μM OD600-1]	Specific production of pHCA ([2]; M9 + Phe (2 mM)) [μM OD600-1]	Specific production of CA ([2]; M9 + Tyr (2 mM)) [μM OD600-1]	Specific production of pHCA ([2]; M9 + Tyr (2 mM)) [μM OD600-1]	Specific production of CA ([3]; Delft + Tyr (10 mM)) [μM OD600-1]	Specific production of pHCA ([3]; Delft + Tyr (10 mM)) [μM OD600-1]	Specific production of CA ([3]; Delft medium) [μM OD600-1]	Specific production of pHCA ([3]; Delft medium) [μM OD600-1]	Specific production of CA ([3]; FIT + Tyr (10 mM)) [μM OD600-1]	Specific production of pHCA ([3]; FIT + Tyr (10 mM)) [μM OD600-1]	Specific production of CA ([3]; FIT medium) [μM OD600-1]	Specific production of pHCA ([3]; FIT medium) [μM OD600-1]
B1	the only enzyme resulting in production of CA	–	–	–	–	–	–	–	–	–	–	–	–
B2	–	0.4 ± 0.02	20 ± 4.4	0 ± 0	61 ± 9.7	0 ± 0	20 ± 6.3	0 ± 0	22 ± 5.2	0 ± 0	26 ± 11	0 ± 0	30 ± 16
B3	–	180 ± 16	7.2 ± 1.3	5.9 ± 6.1	170 ± 10	21 ± 1.9	89 ± 13	18 ± 0.9	20 ± 0.8	57 ± 4.1	110 ± 8.8	88 ± 2	67 ± 4.3
